{
  "source": "patent US20240382610A1",
  "about": "(TALLAC THERAPEUTICS, published 2024)",
  "binders": {"B1": {"name": "TNT-193 (antibody, mouse IgG2a, kappa)", "heavy": "QVQLQESGPGLVKPSGTLSLTCTVSGGSISSGGYYWAWIRQPPGKGLEWIGSIYYTGSTYYNPSLKSRVTIYVDTSKNQFSLKLSSVTAADTAVYYCARDPFPEPPDAFDIWGQGTMVTVSSAKTTAPSVYPLAPVCGDTTGSSVTLGCLVKGYFPEPVTLTWNSGSLSSGVHTFPAVLQSDLYTLSSSVTVTSSTWPSQSITCNVAHPASSTKVDKKIEPRGPTIKPCPPCKCPAPNLLGGPSVFIFPPKIKDVLMISLSPIVTCVVVDVSEDDPDVQISWFVNNVEVHTAQTQTHREDYNSTLRVVSALPIQHQDWMSGKEFKCKVNNKDLPAPIERTISKPKGSVRAPQVYVLPPPEEEMTKKQVTLTCMVTDFMPEDIYVEWTNNGKTELNYKNTEPVLDSDGSYFMYSKLRVEKKNWVERNSYSCSVVHEGLHNHHTTKSFSRTPGRPQGFGPP", "light": "not shown"}, "B2": {"name": "TNT-192 (antibody, mouse IgG2a, kappa)", "heavy": "EVQLLESGGGVVQPGRSLRLSCAASGFTFSSYGMHWVRQAPGKGLEWVAVISYDGSNKYYADSVKGRFTISRDNSKNTLYLQMNSLRAEDTAVYYCAKDYGYNWNFFDYWGQGTLVTVSSAKTTAPSVYPLAPVCGDTTGSSVTLGCLVKGYFPEPVTLTWNSGSLSSGVHTFPAVLQSDLYTLSSSVTVTSSTWPSQSITCNVAHPASSTKVDKKIEPRGPTIKPCPPCKCPAPNLLGGPSVFIFPPKIKDVLMISLSPIVTCVVVDVSEDDPDVQISWFVNNVEVHTAQTQTHREDYNSTLRVVSALPIQHQDWMSGKEFKCKVNNKDLPAPIERTISKPKGSVRAPQVYVLPPPEEEMTKKQVTLTCMVTDFMPEDIYVEWTNNGKTELNYKNTEPVLDSDGSYFMYSKLRVEKKNWVERNSYSCSVVHEGLHNHHTTKSFSRTPGRPQGFGPP", "light": "DIVMTQSPSSLSASVGDRVTITCRASQGISNYLAWYQQKPGKVPKLLIYAASTLQSGVPSRFSGSGSGTDFTLTISSLQPEDVATYYCQKYNSAPYTFGQGTKVEIKRADAAPTVSIFPPSSEQLTSGGASVVCFLNNFYPKDINVKWKIDGSERQNGVLNSWTDQDSKDSTYSMSSTLTLTKDEYERHNSYTCEATHKTSTSPIVKSFNRNEC"}},
  "key": {"[1]": {"target": "T1, Human nectin-4 ECD-6His (TNT-175) (human, UniProt Q96NY8 32-349)", "T1 construct": "the entry holds the extracellular domain with the C-terminal 6His tag", "T1 sequence": "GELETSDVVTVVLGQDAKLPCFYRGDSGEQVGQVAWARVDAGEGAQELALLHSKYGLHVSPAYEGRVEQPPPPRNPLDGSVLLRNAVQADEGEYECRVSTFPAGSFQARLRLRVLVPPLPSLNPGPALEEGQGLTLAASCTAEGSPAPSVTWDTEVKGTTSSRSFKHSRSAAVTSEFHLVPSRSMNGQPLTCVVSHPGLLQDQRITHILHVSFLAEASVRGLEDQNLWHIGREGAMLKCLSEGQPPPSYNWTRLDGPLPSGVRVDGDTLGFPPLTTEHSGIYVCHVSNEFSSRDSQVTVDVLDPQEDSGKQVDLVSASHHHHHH", "assay": "competition ELISA; nectin-4 ECD premixed with TNT206, captured by the coat antibody; % of signal without premix antibody", "procedure": "(§1) Competition experiments of nectin-4 antibodies. ELISA plates were coated overnight at 4° C. with goat anti-mouse IgG at […] in PBS. […] As positive control, nectin-4 was diluted at same concentrations without a premix antibody. Two wells per plate were allocated for diluent only as negative/background control. Plates were washed as previously, 50 μL/well of premix was added to each plate and incubated for one hour. Plates were washed then incubated at room temperature for one hour with Rabbit anti 6× HIS HRP diluted 1:4,000 in diluent. Plates were washed once more and incubated at room temperature for 20 minutes with 50 μL/well of ABTS substrate. […] Binding was measured as an Optical Density (O.D.) value normalized to background and calculated as a percentage of positive control at the lowest nectin-4 dilution for greatest resolution."}, "[2]": {"target": "T1, Human nectin-4 ECD-6His (TNT-175)", "assay": "competition ELISA; nectin-4 ECD premixed with TNT212, captured by the coat antibody; % of signal without premix antibody", "procedure": "as §1"}, "[3]": {"target": "T1, Human nectin-4 ECD-6His (TNT-175)", "assay": "competition ELISA; nectin-4 ECD premixed with TNT209, captured by the coat antibody; % of signal without premix antibody", "procedure": "as §1"}, "[4]": {"target": "T1, Human nectin-4 ECD-6His (TNT-175)", "assay": "SPR ProteOn, mAb on protein A", "procedure": "Initial testing of binding of nectin-4 antibodies to nectin-4. […] Biotinylated protein A (15 μg/mL) was immobilized to the surface of an NLC chip. 30 nM of purified mAb supernatant was diluted in PBS-T and captured over the protein A surface. Serial dilutions of human nectin-4 were injected over the mAb-coated chips, and binding kinetics were determined. Chips were regenerated using 4:1 v/v of IgG elution butter/4M NaCl."}, "[5]": {"target": "T1, Human nectin-4 ECD-6His (TNT-175)", "assay": "competition ELISA; nectin-4 ECD premixed with TNT205, captured by the coat antibody; % of signal without premix antibody", "procedure": "as §1"}, "human nectin-4 on cells": {"target": "T2, human nectin-4 on cells (human, UniProt Q96NY8 32-510)", "T2 construct": "whole, on cells; also called PVRL4", "T2 sequence (looked up)": "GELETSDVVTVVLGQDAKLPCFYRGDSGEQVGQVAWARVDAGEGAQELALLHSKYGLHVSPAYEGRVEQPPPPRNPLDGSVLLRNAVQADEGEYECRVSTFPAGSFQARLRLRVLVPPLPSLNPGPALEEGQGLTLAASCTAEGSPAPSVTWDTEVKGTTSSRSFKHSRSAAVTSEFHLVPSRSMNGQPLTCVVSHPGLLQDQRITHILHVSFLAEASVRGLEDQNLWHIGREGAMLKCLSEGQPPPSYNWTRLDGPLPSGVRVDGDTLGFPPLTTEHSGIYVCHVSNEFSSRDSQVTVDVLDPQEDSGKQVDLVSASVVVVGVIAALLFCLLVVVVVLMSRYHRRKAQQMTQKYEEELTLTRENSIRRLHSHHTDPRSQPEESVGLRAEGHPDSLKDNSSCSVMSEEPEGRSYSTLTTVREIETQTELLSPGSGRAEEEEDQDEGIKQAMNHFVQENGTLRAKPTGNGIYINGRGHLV", "assay": "flow cytometry MFI, MNK74 (nectin-4 positive) over AGS (negative)", "procedure": "Cell binding of nectin-4 antibodies. Cell binding of the nectin-4 antibodies was also assessed. MNK74 (nectin-4 positive) and AGS (nectin-4 negative) cells were obtained from ATCC and cultured according to their protocols. Cells were detached with TrypLE (Gibco) and washed by centrifugation for five minutes at 400×g with FACS buffer (PBS+2% FBS). Cells were resuspended in FACS buffer, plated in 96-well format (0.25 e6/well) then pelleted by centrifugation for five minutes at 400×g. Cells were stained at 4° C. in Fixable Viability Dye eFluor 506 (eBioscience) diluted 1:4,000 in PBS. […] Cells were centrifuged, washed once in FACS buffer and stained at 4° C. with Goat F(ab′)₂ anti-Mouse IgG APC (Southern Biotech) diluted 1:400 in FACS buffer for 30 minutes or appropriate anti-human IgG. Cells were centrifuged, washed twice and fixed in 0.5% paraformaldehyde. Cells were analyzed on Attune NxT Flow Cytometer (Thermo Fisher), with subsequent data analysis by Flowjo 10.7 (BD). Dead cells were excluded by gating on the eFluor 506-negative population. […] Binding was assessed by median fluorescent intensity."}, "[6]": {"target": "T1, Human nectin-4 ECD-6His (TNT-175)", "assay": "competition ELISA; nectin-4 ECD premixed with TNT207, captured by the coat antibody; % of signal without premix antibody", "procedure": "as §1"}, "[7]": {"target": "T1, Human nectin-4 ECD-6His (TNT-175)", "assay": "competition ELISA; nectin-4 ECD premixed with TNT202, captured by the coat antibody; % of signal without premix antibody", "procedure": "as §1"}, "[8]": {"target": "T1, Human nectin-4 ECD-6His (TNT-175)", "assay": "competition ELISA; nectin-4 ECD premixed with TNT210, captured by the coat antibody; % of signal without premix antibody", "procedure": "as §1"}, "[9]": {"target": "T1, Human nectin-4 ECD-6His (TNT-175)", "assay": "competition ELISA; nectin-4 ECD premixed with TNT211, captured by the coat antibody; % of signal without premix antibody", "procedure": "as §1"}, "[10]": {"target": "T1, Human nectin-4 ECD-6His (TNT-175)", "assay": "competition ELISA; nectin-4 ECD premixed with TNT203, captured by the coat antibody; % of signal without premix antibody", "procedure": "as §1"}, "[11]": {"target": "T1, Human nectin-4 ECD-6His (TNT-175)", "assay": "competition ELISA; nectin-4 ECD premixed with TNT204, captured by the coat antibody; % of signal without premix antibody", "procedure": "as §1"}, "[12]": {"target": "T1, Human nectin-4 ECD-6His (TNT-175)", "assay": "competition ELISA; nectin-4 ECD premixed with TNT208, captured by the coat antibody; % of signal without premix antibody", "procedure": "as §1"}, "[13]": {"target": "T1, Human nectin-4 ECD-6His (TNT-175)", "assay": "competition ELISA; nectin-4 ECD premixed with TNT201, captured by the coat antibody; % of signal without premix antibody", "procedure": "as §1"}},
  "data": [
    {"binder": "B1", "values": [
      {"measurement": "% of Positive", "setting": "[1]", "result": 3.1, "unit": "%"},
      {"measurement": "% of Positive", "setting": "[2]", "result": 3.7, "unit": "%"},
      {"measurement": "% of Positive", "setting": "[3]", "result": 5.1, "unit": "%"},
      {"measurement": "Kd", "setting": "[4]", "result": 3.73, "unit": "nM"},
      {"measurement": "koff", "setting": "[4]", "result": 0.00837, "unit": "s⁻¹"},
      {"measurement": "kon", "setting": "[4]", "result": "2.24e+06", "unit": "M⁻¹ s⁻¹"},
      {"measurement": "% of Positive", "setting": "[5]", "result": 8.4, "unit": "%"},
      {"measurement": "Fold-change of binding to MNK74 compared to control AGS", "setting": "human nectin-4 on cells", "result": 5.2, "unit": "fold"},
      {"measurement": "% of Positive", "setting": "[6]", "result": 1.6, "unit": "%"},
      {"measurement": "% of Positive", "setting": "[7]", "result": 3, "unit": "%"},
      {"measurement": "% of Positive", "setting": "[8]", "result": 2.1, "unit": "%"},
      {"measurement": "% of Positive", "setting": "[9]", "result": 6, "unit": "%"},
      {"measurement": "% of Positive", "setting": "[10]", "result": 17, "unit": "%"},
      {"measurement": "% of Positive", "setting": "[11]", "result": 1.9, "unit": "%"},
      {"measurement": "% of Positive", "setting": "[12]", "result": 2.4, "unit": "%"},
      {"measurement": "% of Positive", "setting": "[13]", "result": 2.2, "unit": "%"}
    ]},
    {"binder": "B2", "values": [
      {"measurement": "% of Positive", "setting": "[1]", "result": 6, "unit": "%"},
      {"measurement": "% of Positive", "setting": "[2]", "result": 2.2, "unit": "%"},
      {"measurement": "% of Positive", "setting": "[3]", "result": 20.5, "unit": "%"},
      {"measurement": "Kd", "setting": "[4]", "result": 9.14, "unit": "nM"},
      {"measurement": "koff", "setting": "[4]", "result": 0.00294, "unit": "s⁻¹"},
      {"measurement": "kon", "setting": "[4]", "result": 322000, "unit": "M⁻¹ s⁻¹"},
      {"measurement": "% of Positive", "setting": "[5]", "result": 36.9, "unit": "%"},
      {"measurement": "Fold-change of binding to MNK74 compared to control AGS", "setting": "human nectin-4 on cells", "result": 4.5, "unit": "fold"},
      {"measurement": "% of Positive", "setting": "[6]", "result": 1.5, "unit": "%"},
      {"measurement": "% of Positive", "setting": "[7]", "result": 3.1, "unit": "%"},
      {"measurement": "% of Positive", "setting": "[8]", "result": 1.1, "unit": "%"},
      {"measurement": "% of Positive", "setting": "[9]", "result": 17.5, "unit": "%"},
      {"measurement": "% of Positive", "setting": "[10]", "result": 23.3, "unit": "%"},
      {"measurement": "% of Positive", "setting": "[11]", "result": 2.9, "unit": "%"},
      {"measurement": "% of Positive", "setting": "[12]", "result": 2.3, "unit": "%"},
      {"measurement": "% of Positive", "setting": "[13]", "result": 1.1, "unit": "%"}
    ]}
  ]
}
